According to US20160024226A1:

Target: TNF-α (WEHI-13VAR cytotoxicity assay of Example 2)

cycloalkyne-modified adalimumab Fab′ gave an IC50 (read off the curve) [lower panel] of 0.5 µg/mL and an IC50 (read off the curve) [upper panel] of 0.3 µg/mL.
